According to patent publication US20130058955A1 (Genentech, published 2013):
Changes are numbered by the printed parent chain. Names may count otherwise. “And” between values parts separate entries of the source, which are not always exact repeats. Identical values can stand only once. Like-named read-outs stand apart in the source and are kept apart here.

Legend:
[1] = molecular target: T1, linear diubiquitin (Boston Biochem) (human, UniProt P0CG48 1-152); experiment: phage IC50 competition ELISA: soluble linear diUb against plate-coated linear diUb for the 1D8.3C2 Fab-phage
T1 construct: Bought product

[2] = molecular target: T1, linear diubiquitin (Boston Biochem); experiment: phage IC50 competition ELISA: Fab-phage with titrated soluble linear diubiquitin, unbound phage caught on coated linear diubiquitin; clone 1E3
Method: (§1) An initial titer ELISA was done to determine the amount of phage at which a signal of OD₄₅₀=0.5 would be achieved. […] The coated plates were blocked with 200 μL/well of 2.5% milk in PBST for one hour at 25° C. with shaking. Twelve two-fold serial dilutions of the phage were made in 2.5% milk in PBST from OD₂₆₈=4.0 to OD₂₆₈=0.002. After one hour, the blocking buffer was dumped off of the plate and 100 μL/well of each phage dilution was added and incubated at 25° C. for 15 minutes with shaking. The plate was then washed six times with PBST using a plate washer. A 1:5000 dilution of an anti-M13 phage-HRP-conjugated secondary antibody (GE Healthcare) in PBST was used for detection of phage binding. 100 μL/well of the secondary dilution was added and the plate was incubated at 25° C. for 30 minutes with shaking. The plate was then washed 12 times with PBST using a plate washer and twice with PBS manually. Bound secondary antibody was detected using a TMB substrate (KPL) followed by quenching with an equal volume of 1 M phosphoric acid.

[3] = molecular target: T1, linear diubiquitin (Boston Biochem); experiment: phage IC50 competition ELISA with soluble linear diubiquitin
Method: as §1

[4] = molecular target: T1, linear diubiquitin (Boston Biochem); experiment: phage IC50 competition ELISA: Fab-phage with titrated soluble linear diubiquitin, unbound phage caught on coated linear diubiquitin; clone 1D8
Method: as §1

[5] = molecular target: T2, K48-linked polyubiquitin 2-7 (Boston Biochem) (human, UniProt P0CG48 1-76, isopeptide bonds between the C-terminus of one ubiquitin and Lys48 of the next); experiment: phage spot ELISA, 2 ug/mL coated antigen, anti-M13-HRP
T2 construct: also called K48-linked chains
Method: (§2) Ninety-six individual clones from the second round of sorting of the VH library, 192 clones from the third round of sorting of the VH library, 96 clones from the fourth round of sorting of the VH library, and 192 clones from the fourth round of sorting of the common light chain library were screened. […] Individual clones were grown up in a 96-well format in 1 mL of 2YT broth containing 50 μg/mL carbenicillin and 1×10¹⁰ phage/mL M13K07 helper phage at 37° C. overnight with shaking. Cells were pelleted by spinning at 3000 rpm for ten minutes. […] All of the Fab libraries contain a carboxy-terminal gD tag on the light chain which allows for assessment of display level by anti-gD antibody binding. The panel of ubiquitin proteins was immobilized on 384-well Maxisorb immunoplates (NUNC). Plates were coated at 4° C. overnight with 2 μg/mL of each protein in 50 mM sodium carbonate buffer, pH 9.6. The coated plates were blocked with 60 μL/well of 2.5% milk in PBST for one hour at 25° C. with shaking. After one hour, the blocking buffer was dumped off of the plate and 20 μL/well of PBST and 10 μL/well of phage supernatant were added. Plates were incubated at 25° C. for one hour with shaking. The plate was then washed six times with PBST by manually filling the wells and dumping off the wash buffer. A 1:5,000 dilution of an anti-M13 horseradish peroxidase (HRP)-conjugated secondary antibody (GE Healthcare) in PBST was used for detection of phage binding. 30 μL/well of the secondary dilution was added and the plate was incubated at 25° C. for 30 minutes with shaking. The plate was then washed six times with PBST and twice with PBS, both manually. Bound secondary antibody was detected using a TMB substrate (KPL) followed by quenching with an equal volume of 1 M phosphoric acid. The absorbance was read at 450 nm.

[6] = molecular target: T3, K11-linked diubiquitin (Genentech) (human, UniProt P0CG48 1-76, isopeptide bond between the C-terminus of one ubiquitin and Lys11 of the other); experiment: as above
T3 construct: also called K11 diUb
Method: as §2

[7] = molecular target: T4, monoubiquitin (Boston Biochem) (human, UniProt P0CG48 1-76); experiment: as above
T4 construct: Bought product
Method: as §2

[8] = molecular target: T5, K63-linked polyubiquitin 2-7 (Boston Biochem) (human, UniProt P0CG48 1-76, isopeptide bonds between the C-terminus of one ubiquitin and Lys63 of the next); experiment: as above
T5 construct: also called K63-linked chains
Method: as §2

[9] = molecular target: T1, linear diubiquitin (Boston Biochem); experiment: western blot, 1 ug/mL IgG, LI-COR Odyssey quantification; Ub2 bands seen at 37 (faint), 111, 333 and 1000 ng
[10] = molecular target: T1, linear diubiquitin (Boston Biochem); experiment: phage IC50 competition ELISA with soluble linear diubiquitin; remark: listed apart in the source
[11] = molecular target: T3, K11-linked diubiquitin (Genentech); experiment: phage specificity ELISA, 1 ug/mL coated antigen, anti-M13-HRP
[12] = molecular target: T4, monoubiquitin (Boston Biochem); experiment: as above
[13] = molecular target: T6, K48-linked diubiquitin (Boston Biochem) (human, UniProt P0CG48 1-76, isopeptide bond between the C-terminus of one ubiquitin and Lys48 of the other); experiment: as above
T6 construct: Bought product; also called K48 diUb

[14] = molecular target: T3, K11-linked diubiquitin (Genentech); experiment: as above; remark: listed apart in the source
[15] = molecular target: T4, monoubiquitin (Boston Biochem); experiment: as above; remark: listed apart in the source
[16] = molecular target: T6, K48-linked diubiquitin (Boston Biochem); experiment: as above; remark: listed apart in the source
[17] = molecular target: T1, linear diubiquitin (Boston Biochem); experiment: western blot, 1 ug/mL IgG, LI-COR Odyssey quantification; Ub2 bands seen at 111 (faint), 333 and 1000 ng

B1: 1D8.3C2, Fab displayed on phage (Fab, V domains shown)
VH: EVQLVESGGGLVQPGGSLRLSCAASGFTFTDYDIHWVRQAPGKGLEWVAWISPYSGYTDYADSVKGRFTISADTSKNTAYLQMNSLRAEDTAVYYCAREAGSRLLSVMDYWGQGTLVTVSS
VL: DIQMTQSPSSLSASVGDRVTITCRASQGVDNSVAWYQQKPGKAPKLLIYSASFLYSGVPSRFSGSGSGTDFTLTISSLQPEDFATYYCQQSYTTPPTFGQGTKVEIK
notes: Fab on M13 phage
[1]
  binding result: binds

B2: 1E3, Fab displayed on phage (Fab, V domains shown)
VH: EVQLVESGGGLVQPGGSLRLSCAASGFTFSNTYISWVRQAPGKGLEWVASITPSSGSTDYADSVKGRFTISADTSKNTAYLQMNSLRAEDTAVYYCARTWLLRWVMDYWGQGTLVTVSS
VL: B1 VL with G28D, D30S, N31T, S32A
notes: Fab on M13 phage (heavy chain fused to gpIII, gD tag on light chain); Fab-zip (bivalent) in the first spot ELISA, monovalent afterwards; also called WT; parental 1E3
[2]
  IC50: 80 nM
[3]
  IC50: 29 nM and 24 nM and 25 nM

B3: 1D8, Fab displayed on phage (Fab, V domains shown)
VH: B1 VH with W50G, S55G
VL: B1 VL with G28D, D30S, N31T, S32A
notes: Fab on M13 phage (heavy chain fused to gpIII, gD tag on light chain); Fab-zip (bivalent) in the first spot ELISA, monovalent afterwards; also called parental wild-type 1D8
[4]
  IC50: ~5000 nM

B4: 1A10, Fab displayed on phage (Fab, V domains shown)
VH: EVQLVESGGGLVQPGGSLRLSCAASGFNIYYSSIHWVRQAPGKGLEWVASIYPYYGYTSYADSVKGRFTISADTSKNTAYLQMNSLRAEDTAVYYCARGYSWYYGSPAFDYWGQGTLVTVSS
VL: B1 VL with G28S, D30S, N31S, S32A, F53S, G66R, S91H
notes: Fab on M13 phage
[5]
  binding result: no binding
[6]
  binding result: no binding
[7]
  binding result: no binding
[8]
  binding result: no binding

B5: 1F11/3F5/Y102L T110A (antibody, V domains shown)
VH: B2 VH with S57Q, Y108L, T116A
VL: B1 VL with G28D, D30S, N31T, S32A, S52K
notes: also called 1F11/3F5/Y102L T110A IgG
[9]
  signal of the Ub2 band at 1000 ng linear diUb (number under the arrow): 5.5

B6: 1D8.4F5, Fab displayed on phage (Fab, V domains shown)
VH: B1 VH with Y32D, W50E, S55G
VL: B1 VL with G28D, D30S, N31T, S32A, Y92F
notes: Fab on M13 phage
[10]
  IC50: ~2000 nM

B7: 3F5/Y102L IgG (antibody, V domains shown)
VH: B2 VH with S57Q, Y108L
VL: B1 VL with G28D, D30S, N31T, S32A
notes: Human kappa IgG1
[9]
  signal of the Ub2 band at 1000 ng linear diUb (number under the arrow): 18

B8: 1F11/3F5 double mutant, Fab displayed on phage (Fab, V domains shown)
VH: B2 VH with S57Q
VL: B1 VL with G28D, D30S, N31T, S32A, S52K
notes: S52K (L2) and S56Q (H2)
[3]
  IC50: 5 nM
[11]
  binding result: no binding (tested: phage OD268 1)
[12]
  binding result: no binding (tested: phage OD268 1)
[13]
  binding result: no binding (tested: phage OD268 1)

B9: 1F11/3F5/Y102L IgG (antibody, V domains shown)
VH: B2 VH with S57Q, Y108L
VL: B1 VL with G28D, D30S, N31T, S32A, S52K
notes: also called triple mutant; hybrid anti-linear polyubiquitin antibody
[9]
  signal of the Ub2 band at 1000 ng linear diUb (number under the arrow): 15.5

B10: 2H5/3F5 double mutant, Fab displayed on phage (Fab, name in Kabat numbering, V domains shown)
VH: B2 VH with S57Q
VL: B1 VL with G28D, D30S, N31T, S32A, T94N
[3]
  IC50: 8 nM
[14]
  binding result: no binding (tested: phage OD268 1)
[15]
  binding result: no binding (tested: phage OD268 1)
[16]
  binding result: no binding (tested: phage OD268 1)

B11: 1F11/Y102L T110A (antibody, V domains shown)
VH: B2 VH with Y108L, T116A
VL: B1 VL with G28D, D30S, N31T, S32A, S52K
notes: also called 1F11/Y102L T110A IgG
[17]
  signal of the Ub2 band at 1000 ng linear diUb (number under the arrow): 8.4

B12: 2C11/3F5 double mutant, Fab displayed on phage (Fab, name in Kabat numbering, V domains shown)
VH: B2 VH with S57Q
VL: B1 VL with G28D, D30S, N31T, S32A, T94Q
[3]
  IC50: 10 nM
[14]
  binding result: no binding (tested: phage OD268 1)
[15]
  binding result: no binding (tested: phage OD268 1)
[16]
  binding result: no binding (tested: phage OD268 1)
